For the assay, the target named is Human CD3εδ (human) (UniProt P07766). The assay is described as follows: SPR, sensorgrams at 10-300 nM; set-up not given.

B1: humanized 26H8 Fab (Fab, V domains shown)
VH: QVQLQESGPGLVKPSETLSLTCTASGYTFTNYYIHWVRQSPGKGLEWIGWIYCGDGSTKFNEQFKDRTTLSADHSKTQASLKLSSVTAADTAIYFCARDWAGSYFFDFWGQGTMVTVSS
VL: DIQMTQSPSSLSASVGDRVTITCKSSQSLLNSRTRKNYLAWYQQKPGKAPKLLIYWASTRESGVPSRFSGSGSGTDFTFTISSLQPEDIATYYCKQSYILRTFGGGTKVEIKR
As for B1, the Kd turned out to be 49 nM, the koff worked out at 0.015 s⁻¹ and the kon is 300000 M⁻¹ s⁻¹.
